Measurements taken from paper PMC12607630, “ZapC crosslinks FtsZ filaments through a dual-binding mechanism modulated by the intrinsically disordered linker of FtsZ in Escherichia coli” (mBio, 2025).
Residue numbers refer to the chain shown, from its start. “And” between values parts separate entries of the source, which are not always exact repeats. Equal entries are not always repeated.

Columns and labels:
Assay in all cases: BLI; 6×His-ZapC or its mutants (0.5 µM) loaded on Ni-NTA biosensors, untagged FtsZ or its variants in solution; Octet-Red96, 30°C, 1× Pol buffer (50 mM HEPES-NaOH pH 6.8, 50 mM KCl, 10 mM MgCl2); apparent Kd from the signal at the end of association against concentration, one-site fit; three repeats with mean (X) and SD
Details in all cases: both partners purified
[1] = molecular target: T1, FtsZ 1-330 (untagged) (Escherichia coli, UniProt P0A9A6 1-330)
T1 construct: FtsZ of Escherichia coli, residues 1-330; lacks most of the CTL and the CTP; Primers BsaI-out-F and 330XbaI-out-R; forward primer starts at codon 2; source: E. coli BL21(DE3), plasmid pLY340, purified (Ni-NTA); 6×His-SUMO tag removed with Ulp1; not shown: 6×His-SUMO, N-terminal, cleaved
T1 sequence (looked up): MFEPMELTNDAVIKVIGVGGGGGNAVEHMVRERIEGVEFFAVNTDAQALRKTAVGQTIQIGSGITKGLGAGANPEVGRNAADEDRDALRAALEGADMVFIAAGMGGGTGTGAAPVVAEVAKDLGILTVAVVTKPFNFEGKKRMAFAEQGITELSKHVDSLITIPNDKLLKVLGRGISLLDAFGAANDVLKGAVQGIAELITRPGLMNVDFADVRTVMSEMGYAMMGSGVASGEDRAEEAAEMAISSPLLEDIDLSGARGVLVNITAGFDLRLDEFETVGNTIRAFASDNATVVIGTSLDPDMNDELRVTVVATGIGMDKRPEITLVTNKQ

[2] = molecular target: T2, FtsZ 1-316 (untagged) (Escherichia coli, UniProt P0A9A6 1-316)
T2 construct: lacks the entire CTL and the CTP; source: E. coli BL21(DE3), plasmid pLY343, purified (Ni-NTA); 6×His-SUMO tag removed with Ulp1; not shown: 6×His-SUMO, N-terminal, cleaved
T2 sequence (looked up): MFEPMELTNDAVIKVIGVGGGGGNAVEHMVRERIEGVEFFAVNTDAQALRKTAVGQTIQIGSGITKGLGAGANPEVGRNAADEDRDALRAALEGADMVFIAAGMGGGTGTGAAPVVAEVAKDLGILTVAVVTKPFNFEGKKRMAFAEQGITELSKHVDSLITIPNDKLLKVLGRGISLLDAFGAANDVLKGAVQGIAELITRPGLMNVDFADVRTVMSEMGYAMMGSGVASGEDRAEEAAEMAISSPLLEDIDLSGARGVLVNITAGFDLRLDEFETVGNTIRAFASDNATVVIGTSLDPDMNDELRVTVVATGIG

[3] = molecular target: T3, FtsZ D360Y (untagged) (Escherichia coli, UniProt P0A9A6 1-383, D360Y)
T3 construct: FtsZ of Escherichia coli with D360Y (CTL); Derivative of pLY17 by site-directed mutagenesis; source: E. coli BL21(DE3), plasmid pLY339, purified (Ni-NTA); 6×His-SUMO tag removed with Ulp1; not shown: 6×His-SUMO, N-terminal, cleaved
T3 sequence (looked up): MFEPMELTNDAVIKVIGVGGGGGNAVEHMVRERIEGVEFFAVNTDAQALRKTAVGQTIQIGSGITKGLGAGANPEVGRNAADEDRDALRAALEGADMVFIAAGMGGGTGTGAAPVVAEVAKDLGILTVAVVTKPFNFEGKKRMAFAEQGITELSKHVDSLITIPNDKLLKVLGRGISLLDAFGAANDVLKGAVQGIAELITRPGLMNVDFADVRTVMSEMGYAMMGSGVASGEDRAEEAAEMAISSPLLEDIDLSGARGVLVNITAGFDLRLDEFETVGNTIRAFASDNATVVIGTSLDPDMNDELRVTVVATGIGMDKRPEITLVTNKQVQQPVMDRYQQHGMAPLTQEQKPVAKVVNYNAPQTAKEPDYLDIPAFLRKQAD

[4] = molecular target: T4, FtsZ I323L (untagged) (Escherichia coli, UniProt P0A9A6 1-383, I323L)
T4 construct: FtsZ of Escherichia coli with I323L (CTL); Derivative of pLY17 by site-directed mutagenesis; source: E. coli BL21(DE3), plasmid pLY20, purified (Ni-NTA); 6×His-SUMO tag removed with Ulp1; not shown: 6×His-SUMO, N-terminal, cleaved
T4 sequence (looked up): T3 sequence (looked up) with I323L, Y360D

B1: 6×His-ZapC (natural protein)
chain: not shown
notes: ZapC, FtsZ-associated protein of Escherichia coli; Construction of pSD323 is not described; also called His-tagged ZapC; source: E. coli, plasmid pSD323 (pQE80, Plac::6×His-ZapC), purified (Ni-NTA); not shown: His6, N-terminal, kept
Kd [1]: 1610 nM and 1810 nM and 1590 nM and 1670 nM | Kd [2]: 1540 nM and 1910 nM and 1290 nM and 1580 nM | Kd [3]: 573 nM and 823 nM and 735 nM and 710 nM | Kd [4]: 647 nM and 635 nM and 620 nM and 579 nM
